Experiment [1] has as its target Fmut8Δ11 protein (recombinant ARFP, truncated HCV-1a F protein lacking the first 11 N-terminal amino acids) (HCV-1a) (UniProt P0C045). In words: ELISA, serum 1/100, day 14. A general note: In an ELISA, binding on a coated surface is turned into a signal by an enzyme label.
For experiment [2] the target is unchanged. In words: ELISA, serum 1/800, day 29.
Experiment [3] has the same target. Put plainly: ELISA, serum 1/50, day 29.
Experiment [4] has the same target. In words: ELISA, serum 1/400, day 52.
The target is the same in experiment [5]. Put plainly: ELISA, serum 1/50, day 14.
Experiment [6] has the same target. Put plainly: ELISA, serum 1/1600, day 29.
The target is the same in experiment [7]. Put plainly: ELISA, serum 1/100, day 29.
Experiment [8] shares this target. In words: ELISA, serum 1/100, day 52.
The target is the same in experiment [9]. Put plainly: ELISA, serum 1/400, day 29.
For experiment [10] the target is unchanged. Put plainly: ELISA, serum 1/1600, day 52.
For experiment [11] the target is unchanged. In words: ELISA, serum 1/1600, day 14.
For experiment [12] the target is unchanged. Put plainly: ELISA, serum 1/200, day 29.
Experiment [13] shares this target. In words: ELISA, serum 1/50, day 52.
Experiment [14] shares this target. In words: ELISA, serum 1/400, day 14.
The target is the same in experiment [15]. In words: ELISA, serum 1/800, day 14.
Experiment [16] has the same target. In words: ELISA, serum 1/200, day 14.
Experiment [17] has the same target. In words: ELISA, serum 1/800, day 52.
Experiment [18] shares this target. Put plainly: ELISA, serum 1/200, day 52.

As for “serum of mouse 11, protocol 2, mock immunization (PBS) (antibody)”, the OD410 in [1] worked out at 0.154; in experiment [2], 0.127; in experiment [3], 0.307; in [4], 0.149; in experiment [5], 0.108; in experiment [6], 0.123. Further, the OD410 in experiment [7] worked out at 0.19; in experiment [8], 0.173; in [9], 0.128; in experiment [10], 0.117; in experiment [11], 0.113; in experiment [12], 0.153. The OD410 in [13] came to 0.35; in [14], 0.116; in experiment [15] it was 0.114; in experiment [16], 0.135; in experiment [17], 0.118; in experiment [18], 0.133.

As to “serum of mouse 12, protocol 2, mock immunization (PBS) (antibody)”, the OD410 in [1] is 0.302; in experiment [2], 0.114; in experiment [3], 0.246; in experiment [4], 0.146; in experiment [5], 0.442; in experiment [6], 0.117. In addition, the OD410 in [7] stood at 0.148; in [8], 0.208; in experiment [9], 0.114; in [10], 0.12; in experiment [11] it was 0.15; in experiment [12], 0.127. Also, the OD410 in [13] was found to be 0.516; in experiment [14], 0.17; in experiment [15] it was 0.16; in [16], 0.215; in [17], 0.125; in [18], 0.17.

Regarding “serum of mouse 13, protocol 2, mock immunization (PBS) (antibody)”, the OD410 amounted to 0.177 in experiment [1]; 0.126 in experiment [2]; 0.338 in [3]; 0.133 in experiment [4]; 0.288 in experiment [5]; 0.13 in [6]. Further, the OD410 in [7] came out at 0.161; in [8] it was 0.238; in [9], 0.121; in [10], 0.113; in [11], 0.142; in [12] it was 0.126. Further, the OD410 in [13] amounted to 0.474; in experiment [14] it was 0.143; in experiment [15], 0.169; in experiment [16], 0.151; in experiment [17] it was 0.123; in [18], 0.172.

For the substance “serum of mouse 14, protocol 2, mock immunization (PBS) (antibody)”, the OD410 in [1] was determined as 0.171; in experiment [2], 0.123; in experiment [3], 0.246; in experiment [4], 0.163; in [5], 0.212; in experiment [6], 0.124. The OD410 in [7] came to 0.156; in [8], 0.224; in experiment [9], 0.126; in experiment [10], 0.145; in experiment [11] it was 0.143; in experiment [12], 0.143. For the same substance, the OD410 in [13] came to 0.288; in experiment [14] it was 0.151; in [15] it was 0.15; in [16], 0.178; in experiment [17], 0.159; in [18], 0.156.

For “serum of mouse 15, protocol 2, mock immunization (PBS) (antibody)”, the OD410 in [1] was 0.162; in experiment [2] it was 0.13; in experiment [3] it was 0.253; in [4], 0.177; in experiment [5] it was 0.229; in experiment [6], 0.122. Also, the OD410 in [7] came to 0.16; in experiment [8], 0.215; in experiment [9], 0.113; in experiment [10], 0.136; in experiment [11] it was 0.116; in experiment [12] it was 0.123. Moreover, the OD410 in experiment [13] turned out to be 0.376; in [14], 0.144; in experiment [15], 0.118; in [16], 0.146; in [17] it was 0.134; in experiment [18] it was 0.151.

For the substance “serum of mouse 16, protocol 2, mock immunization (PBS) (antibody)”, the OD410 turned out to be 0.174 in experiment [1]; 0.129 in experiment [2]; 0.327 in [3]; 0.134 in experiment [4]; 0.249 in experiment [5]; 0.116 in experiment [6]. The OD410 in experiment [7] stood at 0.325; in experiment [8], 0.194; in experiment [9], 0.151; in experiment [10], 0.123; in [11] it was 0.123; in [12], 0.196. Moreover, the OD410 worked out at 0.231 in [13]; 0.121 in experiment [14]; 0.13 in [15]; 0.13 in [16]; 0.107 in experiment [17]; 0.149 in experiment [18].

For the substance “serum of mouse 17, protocol 2, mock immunization (PBS) (antibody)”, the OD410 was 0.487 in [1]; 0.119 in experiment [2]; 0.754 in experiment [3]; 0.142 in experiment [4]; 0.67 in experiment [5]; 0.112 in [6]. In addition, the OD410 came out at 0.269 in experiment [7]; 0.286 in experiment [8]; 0.138 in experiment [9]; 0.125 in experiment [10]; 0.159 in [11]; 0.191 in [12]. Further, the OD410 in experiment [13] is 0.5; in experiment [14], 0.248; in [15], 0.184; in experiment [16], 0.321; in [17], 0.125; in [18] it was 0.185.

Take “serum of mouse 18, protocol 2, mock immunization (PBS) (antibody)”: the OD410 in experiment [1] was 0.162; in experiment [2], 0.126; in experiment [3], 0.356; in experiment [4], 0.12; in experiment [5] it was 0.228; in [6], 0.119. Moreover, the OD410 in experiment [7] came to 0.217; in [8] it was 0.161; in experiment [9], 0.134; in experiment [10], 0.134; in [11], 0.122; in experiment [12] it was 0.166. Also, the OD410 in [13] amounted to 0.279; in [14], 0.127; in experiment [15], 0.126; in experiment [16] it was 0.136; in experiment [17], 0.114; in [18], 0.135.

Regarding “serum of mouse 30, protocol 2, mock immunization (PBS) (antibody)”, the OD410 in [2] was found to be 0.126; in experiment [3], 0.381; in [4] it was 0.119; in experiment [6] it was 0.129; in experiment [7] it was 0.224; in experiment [8], 0.148. For the same substance, the OD410 in experiment [9] was determined as 0.132; in experiment [10], 0.119; in experiment [12], 0.157; in [13], 0.226; in experiment [17] it was 0.113; in experiment [18] it was 0.128.

These data come from patent US20090239794A1, “HCV F PROTEIN AND USES THEREOF” (priority 2004, published 2009).
